A protein production outcome set (Wang et al. 2014)

Experiment: label from the status in PepcDB records

Sequence | protein production
MTTVRTRIAPSPTGDPHVGTAYIALFNLCFARQHGGQFILRIEDTDQLRSTRESEQQIYDALRWLGIEWDEGPDVGGPHGPYRQSERGHIYKKYSDELVEKGHAFTCFCTPERLDAVRAEQMARKETPRYDGHCMHLPKDEVQRRLAAGESHVTRMKVPTEGVCVVPDMLRGDVEIPWDRMDMQVLMKADGLPTYFLANVVDDHLMGITHVLRGEEWLPSAPKLIKLYEYFGWEQPQLCYMPLLRNPDKSKLSKRKNPTSITFYERMGYLPQALLNYLGRMGWSMPDEREKFTLAEMIEHFDLSRVSLGGPIFDLEKLSWLNGQWIREQSVEEFAREVQKWALNPEYLMKIAPHVQGRVENFSQIAPLAGFFFSGGVPLDASLFEHKKLDPTQVRQVLQLVLWKLESLRQWEKERITGCIQAVAEHLQLKLRDVMPLMFPAITGHASSVSVLDAMEILGADLSRYRLRQALELLGGASKKETKEWEKIRDAIPG | failed
MKTIRAILNGKKAGNPELRDAIMKMRDRGVDVQVRVTWESQDMPRLVKEAVTDGIERIVVAGGDGTVNEAASALIHIDHESRPELAIIPLGTANDFATANHIPDSIADALTLAVEGQALSVDCVKANDRCFINVAAAGFGAEVTAETPVELKNFLGGGAYTLTGVVKALGFKPYDGSITIEGGRYDGEMLLGAFCNSRLAGGGQQLAPNAMIDDGLMDLTLVRPFLPHELPKVIEEINNPSEKGEFVKHTRASWLEIDFPNPLPLNLDGEPYHSRKIRFEVQPKSLKLVLPKDCPCVTH | failed
MTDDPTLWAQRLEEAVVGLGANGDRSHDLAHAKRVLRTALALADGVEDQGEGPVDRLVLTAAAYLHDIVAIEKNDPRRSLASRLSAAKAREILGGLDFPAGRQDGVAHAIEAHSFSAGIAPRSLEARILQDADRMESLGAIGVARTFYVAGRLGSALFHDDDPLAFARPLDERAYALDHFFTKLLTLPATMTTAPGRAMAGERAELLRAFAEALAQEVSGAAAPGPRPARPSDGEAPSPLPVWPGSGTRTR | failed
MGGGEVKMMSLLEEMKGIYSKKGGKVKPFEKFEGELKEGYRFEYEKKLCEIDVAMFGLISGDLNPVHFDEDFASKTRFGGRVVHGMLTTSLVSAAVARLPGTVVLLEQSFRYTSPVRIGDVVRVEGVVSGVEKNRYTIDVKCYTGDKVVAEGVVKVLIW | not failed
MSRKPRYSLALEVEPANPNEAYRHYMKKLSYETDIADLSIDIKKGYEGIIVVDVRDAEAYKECHIPTAISIPGNKINEDTTKRLSKEKVIITYCWGPACNGATKAAAKFAQLGFRVKELIGGIEYWRKENGEVEGTLGAKADLFWNMKKESKNKKSLDGSTQ | failed
MTKSQQKVSSIEKLSNQEGIISALAFDQRGALKRMMAEHQSETPTVEQIEQLKVLVSEELTQYASSILLDPEYGLPASDARNNDCGLLLAYEKTGYDVNAKGRLPDCLVEWSAKRLKEQGANAVKFLLYYDVDDTEEINIQKKAYIERIGSECVAEDIPFFLEVLTYDDNIPDNKSAEFAKVKPRKVNEAMKLFSEDCFNVDVLKVEVPVNMNFVEGFSEGEVVYTKEEAAQHFRDQDAATHLPYIYLSAGVSAELFQDTLKFAHDSGAQFNGVLCGRATWSGAVKVYIEEGEQAAREWLRTVGFKNIDDLNTVLKTTATSWKNK | not failed
MVEGVHCVPDSVELMPKQHDIPRARLRIVVHEGRNHEVRELVKNAGLEVHSLKRVRIGGFRLPSDLGLGKHVELKQSELKALGWKN | not failed
METGAGIGLYPLHRCKTIYLVRHAQGIHNVDGEKNYKAYMSHDYFDAELTQLGWKQVDSLRKHVHSSGLHKKIELVISSPLMRTLQTAVGVFGGEGYTDMSDVLPLMVANAGNSSRAAISSLNCPPVITEESCREHLGVHPCDQRRSISDYQFLFPAVDFSLIESEEDKLWKADVRETIEELAARGKKFLNWLWTRKEKEIAIVTHSGFLFHTLNALQNECHPDVKKEICGHFANCELRSMVIVDRSMLGSDSSVTDYPGKIPKGIDLPSDAVVDDNNIKVE | not failed
VKFLTVNDDILSMPQARNFCASAGGYLADDLGDDKNNFYSSIAANTQFWIGLFKNSDGQFYWDRGQGINPDLLNQPITYWANGEPSNDPTRQCVYFDGRSGDKSKVWTTDTCATPRPFICQKHRYDSDHKPNTIGDA | not failed
MIIIMAGGKSSRMGREKPVLKIAGKEMLLWVYEQAEAVGEVLVALSRHTPRTRELCLREGIEFVDTPGRGYVKDVQWLLREFGPFISLSSDIPFVKSSDIYSLLKEFDGKVSLTGVLPLEVVPKDLTPYSYMGYAIVGINGVAKEGEKFFVFSNPLLALNVNTPRELELAKRVAEIIRVRGIRLEHHHHHH | not failed
DFRASATRPFTGEEYLASLRDDREIYIYGDRVKDVTSHPAFRNAAASMARLYDALHDPQSKEKLCWETDTGNGGYTHKFFRYARSADELRQQRDAIAEWSRLTYGWMGRTPDYKAAFGSALGANPGFYGRFEDNAKTWYKRIQEACLYLNHAIVNPPIDRDKPVDQVKDVFISVDEEVDGGIVVSGAKVVATNSALTHYNFVGQGSAQLLGDNTDFALMFIAPMNTPGMKLICRPSYELVAGIAGSPFDYPLSSRFDENDAILVMDKVFIPWENVLIYRDFERCKQWFPQGGFGRLFPMQGCTRLAVKLDFITGALYKALQCTGSLEFRGVQAQVGEVVAWRNLFWSLTDAMYGNASEWHGGAFLPSAEALQAYRVLAPQAYPEIKKTIEQVVASGLIYLPSGVRDLHNPQLDKYLSTYCRGSGGMGHRERIKILKLLWDAIGSEFGGRHELYEINYAGSQDEIRMQALRQAIGSGAMKGMLGMVEQCMGDYDENGWTVPHLHNPDDIN | failed
MIKKARKFIPFFLIGSLLAEDNGWYMSVGYQIGGTQQFINNKQLLENQNIINSVTQSAINIAGPTTGLITLSSQTVIDALGYGVSNTVGNQLEGISNILNQIGKRKDFYSSRQISSISQQIIGLKGSSDPLKAHSSQITAKLLSNTQSAFDQGIALSTNIISSINSLNPSNNTQEVKKQLQNTAQSMTELLQQIEHSITKTTSTTYAQSLLSNLTDAVNASSNNTAYVSALVNALNTLGVGVFPTTTTTHVVLNPPGQVVFYPTNSILGSTSSNSNNQQQYNNTLLMNTLQGTLSANTQNNPNGCANQVQCLEQFIQNLAPLAATPTSNNQANQQVQAIAQKLQSVAINTLDNNAINNTTYNLNNLHNALNFQAYESTIEQYNNALKQISWISFTEPKNLLKNTSNNYQIGTVTNAQGQNISAYDCMTATGSLSSNASSGISCSATSSTSSTNSFDNSLVATSKVQTINGKEQIGVNSFNLVSQVWSVYNSLKTSEENLQKNANILCANGTQSGTSSCNSSSGGLSISGNAQLQNILSPTSGTTTNTQAKSNAPKLKAMVVVNNEEEAKTANLAQSSGTTTQSPNSTVMGALNTVLQNVSNFQQSIQNAFQNQESNIQAWANAIYNTNGSQSQEMTPNNNQDLRIQLRANFYQLINTINQQVPTDMNALINQSQQTQQTSGSASNNNACASGMSGSNGNWCYQQWSDSKAYYSGLQSALGYQTQATTQSGSNGGNSITYNVQQITLTSNGLLNQIITNLKSVNGGNGASGTGSGNGTSQINTAYQMLTDASDGKLGTYSSSSGSNNGYTPCNSTNGSNKTSGNNCYEPNKQQNATTATATTDSNLQKVYNDAQKIANIIASSGNNKGVENGLKQFFEALKNNSSSLSNLCGNGSSGSSGTTCSGWLINLLGAIPTNGVSDTNNLINLLTEFIKTAGFIQNNDSSVSTSLTSAFQAITSAISQGFQALQNDISPNAILTLLQEITSNTTTIQSFSQTLRQLLGDKTFFMAQQKLIDAMINARNQVQNAQNQANNYGSQPVLSQYAAAKSTQHGMSNGLGVGLGYKYFFGKARKLGLRHYFFFDYGFSEIGLANQSVKANIFAYGVGTDFLWNLFRRTYNTKALNFGLFAGVQLGGATWLSSLRQQIIDNWGSANDIHSTNFQVALNFGVRTNFAEFKRFAKKFHNQGVISQKSVEFGIKVPLINQAYLNSAGADVSYRRLYTFYINYIMGF | failed
IKHKQLIEQVMIYIEKHLAENITLQDIADELYISRNYLGQIFKKVVGESFKNYVTRLRMEKAKKMIQEGNFLIYEVSEKVGYVNPAYFTTMFKKYTGYTPRDLIQK | failed
